In the test the target is HIV-1JR-FLΔCT Env trimer (HIV-1 JR-FL) (UniProt Q75760). The test can be described thus: flow cytometry on cells.

Consider “C34-Ig, fusion protein of an immunoglobulin Fc and the gp41 HR2 peptide (Fc fusion)”, for which the percent of Env-expressing cells binding C34-Ig is 37%.

The values above are taken from paper PMC4231716.
